Data as given in patent US6716809B1, “Mage-A3 peptides presented by HLA class molecules” (priority 1997, dated 2004).

System: clone C3.22
Test: IFN-γ production by CD4 clone C3.22 stimulated with peptide- or protein-pulsed EBV-B cells
Format: cell-based, human
Settings: 20 μg/ml protein
Procedure: EBV-B cells from hemochromatosis patient 1981 (LB-1981-EBV) were incubated with 20 μg/ml of ovalbumin (OVA) or MAGE-A3 protein (bacteria) for 20 h. Ten thousand cells were distributed in microwells to which an aliquot of microculture C3 (˜4,000 effector cells) was added. Several clones were obtained from microculture C3, in particular CD4^+ clones LB1981-CD4 527/C3.22 (referred to hereafter as clone C3.22) and LB1981-CD4 527/C3.43 (referred to hereafter as clone C3.43). The clones C3.22 and C3.43 (˜3,000 cells) were stimulated with LB-1981-EBV incubated with 20 μg/ml of MAGE-A3 (˜16,000 cells) or transduced with a retrovirus coding for a fusion protein Ii-MAGE-A3 (˜20,000 cells). IFN-γ production in the supernatant was estimated after overnight culture by ELISA. They both recognized autologous EBV-B cells loaded with protein MAGE-A3 (bacteria) or transduced with a retrovirus encoding a truncated invariant chain (Ii)-MAGE-A3 fusion protein (FIG. 17). These (most probably twin) clones recognized cells expressing Ii-MAGE-A3 endogenously and therefore they are directed against a MAGE-A3-derived antigen and not against a contaminant in the batch of protein.
The antigenic peptides were identified as described above, except that the peptides were tested at a concentration of 1 μg/ml and that the test was performed in 100 μl. Peptides LGDPKKLLTQHFVQEN (SEQ ID NO:82), KKLLTQHFVQENYLEY (SEQ ID NO:83), TQHFVQENYLEYRQVP (SEQ ID NO:84) and VQENYLEYRQVPGSDP (SEQ ID NO:85) were tested. Autologous EBV-B cells were incubated for 1 h with 1 μg/ml of each of the peptides. Clone C3.43 (3,000 cells) was then cocultured with 20,000 peptide-pulsed cells for 20 h. IFN-γ production in the supernatant was measured by ELISA.
Patient LB1981 was typed DPB1*0401. To confirm that DPB1*0401 was the presenting HLA-DP molecule, additional EBV-B cell lines were tested. Autologous LB 1981-EBV or allogeneic-EBV-B cells were incubated for 1 h with 1 μg/ml of peptides, and washed. CD4 clones (3,000 cells) were then incubated for 20 h with 20,000 peptide-pulsed EBV-B cells. IFN-γ released in the supernatant was measured by ELISA. Those EBV-B cell lines expressing DPB1*0401 were able to present the MAGE-A3243-258 peptide to clone C3.22 (Table VII). DPB1*0401 is expressed in approximately 64% of Caucasians.

B1: MAGE-A3: MAGE-A3 protein; recombinant His-MAGE-A3 produced in E. coli, or expressed from MFG MAGE-A3 retrovirus in Example 6 (protein, listed as Homo sapiens)
chain: MPLEQRSQHCKPEEGLEARGEALGLVGAQAPATEEQEAASSSSTLVEVTLGEVPAAESPDPPQSPQGASSLPTTMNYPLWSQSYEDSSNQEEEGPSTFPDLESEFQAALSRKVAELVHFLLLKYRAREPVTKAEMLGSVVGNWQYFFPVIFSKASSSLQLVFGIELMEVDPIGHLYIFATCLGLSYDGLLGDNQIMPKAGLLIIVLAIIAREGDCAPEEKIWEELSVLEVFEGREDSILGDPKKLLTQHFVQENYLEYRQVPGSDPACYEFLWGPRALVETSYVKVLHHMVKISGGPHISYPPLHEWVLREGEE
modifications: His tag
  recognition by clone C3.22 of autologous EBV-B cells loaded with protein: recognized
